# T1: MutS (Escherichia coli, UniProt P23909 1-853)
# T1 sequence: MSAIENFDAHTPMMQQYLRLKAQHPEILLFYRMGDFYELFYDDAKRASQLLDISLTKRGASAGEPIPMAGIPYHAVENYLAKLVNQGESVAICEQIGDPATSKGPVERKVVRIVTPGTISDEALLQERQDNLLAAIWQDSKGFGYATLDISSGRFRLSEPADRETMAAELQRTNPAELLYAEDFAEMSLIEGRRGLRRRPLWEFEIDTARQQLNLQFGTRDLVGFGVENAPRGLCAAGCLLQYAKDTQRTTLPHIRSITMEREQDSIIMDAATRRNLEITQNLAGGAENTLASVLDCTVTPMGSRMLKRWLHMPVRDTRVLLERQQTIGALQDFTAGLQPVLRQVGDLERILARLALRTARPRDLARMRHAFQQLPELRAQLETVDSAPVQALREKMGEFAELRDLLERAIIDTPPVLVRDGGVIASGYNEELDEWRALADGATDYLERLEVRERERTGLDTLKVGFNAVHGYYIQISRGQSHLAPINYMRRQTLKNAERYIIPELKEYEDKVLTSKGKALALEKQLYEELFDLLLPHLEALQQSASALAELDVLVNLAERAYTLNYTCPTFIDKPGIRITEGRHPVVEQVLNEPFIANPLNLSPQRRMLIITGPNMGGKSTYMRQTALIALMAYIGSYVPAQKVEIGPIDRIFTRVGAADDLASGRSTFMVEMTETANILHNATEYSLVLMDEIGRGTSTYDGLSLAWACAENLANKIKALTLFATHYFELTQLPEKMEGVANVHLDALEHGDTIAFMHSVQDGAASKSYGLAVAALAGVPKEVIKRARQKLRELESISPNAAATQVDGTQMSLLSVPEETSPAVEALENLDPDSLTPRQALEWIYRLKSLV
# Biological target: T1, MutS
# Experiment: impedance spectroscopy, CV
row,Binder,binding signal
1,CC heteroduplex (dsDNA) DNA 1: GACGAGCCGCCCGCTAGCGTCG DNA 2: CGACGCTAGCGCGCGGCTCGTC,1050 Ohm/cm (Rct calibration slope as printed)
2,CT heteroduplex (dsDNA) DNA 1: GACGAGCCGCCCGCTAGCGTCG DNA 2: CGACGCTAGCGTGCGGCTCGTC,1680 Ohm/cm (Rct calibration slope as printed)
3,GT heteroduplex (dsDNA) DNA 1: GACGAGCCGCGCGCTAGCGTCG DNA 2: CGACGCTAGCGTGCGGCTCGTC,3380 Ohm/cm (Rct calibration slope as printed)

# Reference: publication PMC1483224
